Assays:
Assay in all cases: cell-based or functional assay
[1] = target: HIV-1 env glycoprotein (YU2) (HIV-1 (YU2)) (UniProt P35961)
[2] = target: HIV-2 7312A envelope with site-directed mutations 660 (K to A), 662 (N to D), 663 (S to K) and 665 (D to A) of SEQ ID NO:2 (HIV-2 (isolate 7312A))
[3] = target: HIV-2 strain 7312A envelope polypeptide (wild-type) (HIV-2 (isolate 7312A))
[4] = target: HIV-2 7312A envelope with site-directed substitutions at 675 (L to I) and 676 (A to T) (HXB2 numbering) (HIV-2 (isolate 7312A))
[5] = target: HIV-2 ST envelope polypeptide (wild-type) (HIV-2 (strain ST)) (UniProt P20872)
[6] = target: HIV-2 UC1 envelope polypeptide (wild-type) (HIV-2 (strain UC1)) (UniProt Q76638)

Substance: 2F5 monoclonal antibody
- neutralization IC50 (JC53bl-13 HIV entry assay) [1]: 25 µg/mL
- neutralization IC50 (JC53bl-13 HIV entry assay) [2]: < 0.1 µg/mL
- neutralization IC50 (JC53bl-13 HIV entry assay) [3]: > 50 µg/mL

Substance: 4E10 monoclonal antibody
- neutralization IC50 (JC53bl-13 HIV entry assay) [1]: 25 µg/mL
- neutralization IC50 (JC53bl-13 HIV entry assay) [4]: 0.8 µg/mL
- neutralization IC50 (JC53bl-13 HIV entry assay) [5]: 0.1 µg/mL
- neutralization IC50 (JC53bl-13 HIV entry assay) [6]: 1.2 µg/mL
- neutralization IC50 (JC53bl-13 HIV entry assay) [3]: > 50 µg/mL

Substance: b12 monoclonal antibody
- neutralization IC50 (JC53bl-13 HIV entry assay) [1]: 3 µg/mL
- neutralization IC50 (JC53bl-13 HIV entry assay) [3]: > 50 µg/mL

Source: patent US20090162390A1
